In PMC12678314:

Target: glutamate-1-semialdehyde aminotransferase (GSAAT), endogenous (Arabidopsis thaliana (endogenous in leaf extracts; the plant of the chloroplast extracts is not named)) (UniProt P42799)
Experiment: non-reducing SDS-PAGE with immunoblot; wild-type Arabidopsis leaf extracts, untreated or pretreated with H2O2, diamide or DTT for 30 min at room temperature; non-reducing 8% SDS-PA gel (the text says non-denaturing PA gel); GSAAT-specific antibody

Chain of glutamate-1-semialdehyde aminotransferase (GSAAT), endogenous (P42799 39-474): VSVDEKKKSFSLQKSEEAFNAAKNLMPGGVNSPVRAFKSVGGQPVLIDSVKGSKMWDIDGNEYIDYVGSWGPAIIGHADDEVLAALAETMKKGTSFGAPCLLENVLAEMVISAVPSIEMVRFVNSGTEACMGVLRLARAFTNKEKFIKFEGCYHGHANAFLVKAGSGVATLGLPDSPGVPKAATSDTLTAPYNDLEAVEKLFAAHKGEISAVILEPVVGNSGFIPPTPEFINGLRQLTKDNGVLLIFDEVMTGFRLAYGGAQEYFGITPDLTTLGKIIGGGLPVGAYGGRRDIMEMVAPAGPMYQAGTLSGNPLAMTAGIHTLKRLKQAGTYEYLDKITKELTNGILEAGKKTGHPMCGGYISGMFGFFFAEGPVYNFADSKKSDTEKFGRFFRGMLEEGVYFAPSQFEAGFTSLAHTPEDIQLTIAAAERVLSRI

In the case of “glutamate-1-semialdehyde aminotransferase (GSAAT), endogenous (from UniProt P42799 39-474) (enzyme)”, the stoichiometry N is reported as 2.
